From the supplement of paper PMC7877785
± gives the uncertainty stated by the source.

Assay: self-splicing fitness, log relative to wild type (ln ratio); higher = more splicing; Tetrahymena group I intron in knt gene, E. coli kanamycin selection, DiMSum; sequences stand for … in CUCUCU…GGAGGGAAAAGUUAUCAGGCAUGCACCUGGUAGCUAGUCUUUAAACCAAUAGAUUGCAUCGGUUUAAAAGGCAAGACCGUCAAAUUGCGGGAAAGGGGUCAACAGCCGUUCAGUACCAAGUCUCAGGGGAAACUUUGAGAUGGCCUUGCAAAGGGUAUGGUAAUAAGCUGACGGACAUGGUCCUAACCACGCAGCCAAGUCCUAAGUCAACAGAUCUUCUGUUGAUAUGGAUGCAGUUCACAGACUAAAUGUCGGUCGGGGAAGAUGUAUUCUUCUCAUAAGAUAUAGUCGGACCUCUCCUUAAUGGGAGCUAGCGGAUGAAGUGAUGCAACACUGGAGCCGCUGGGAACUAAUUUGUAUGCGAAAGUAUAUUGAUUAGUUUUGGAGUACUCGUGGUCG
How it was run: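 Colonies from six replicate transformations of E. coli BL21(DE3) were pooled and amplicon-sequenced on an Illumina HiSeq 2500. The library placed an intron with all eight P1ex-region nucleotides randomised inside the knt kanamycin-resistance gene on pET-22b(+), and cells grew overnight at 37°C or 30°C on LB agar with or without 25 μg/mL kanamycin (plus 100 μg/mL carbenicillin, 50 μM IPTG, 0.2% rhamnose). Fitness is the DiMSum error-weighted combination of wild-type-normalised replicate fold changes, kanamycin versus none.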

| Sequence | self-splicing fitness (ln) (30 °C) | self-splicing fitness (ln) (37 °C) |
| --- | --- | --- |
| GGGCAGCAAUAUUACGCACU | -1.6 ± 0.32 | -1.42 ± 0.24 |
| CUAUAGCAAUAUUACGAUAG | – | -2.54 ± 0.39 |
| AUAAAGCAAUAUUACGCACG | -0.375 ± 0.083 | -0.0827 ± 0.11 |
| CCUAAGCAAUAUUACGGUAC | -2.81 ± 0.22 | -2.17 ± 0.34 |
| ACGCAGCAAUAUUACGGGUU | -2.19 ± 0.069 | -1.92 ± 0.092 |
| CCGCAGCAAUAUUACGCUCA | – | -1.28 ± 0.21 |
| AGAGAGCAAUAUUACGCAUC | -2.22 ± 0.28 | -1.91 ± 0.22 |
| AGUCAGCAAUAUUACGGUAC | -3 ± 0.16 | -1.88 ± 0.21 |
| CGGUAGCAAUAUUACGCGGA | -2.54 ± 0.12 | -1.26 ± 0.097 |
| GCAAAGCAAUAUUACGGCAU | -0.675 ± 0.095 | 0.0956 ± 0.1 |
| CUUUAGCAAUAUUACGAACA | -3.07 ± 0.41 | – |
| UUAAAGCAAUAUUACGUCAC | -2.97 ± 0.16 | -1.76 ± 0.22 |
| CGAAAGCAAUAUUACGGUGC | -3.09 ± 0.17 | -2.65 ± 0.21 |
| CGGGAGCAAUAUUACGUACG | -2.98 ± 0.11 | -1.53 ± 0.097 |
| AGCAAGCAAUAUUACGCUAU | -2.4 ± 0.1 | -2.25 ± 0.15 |
| GGACAGCAAUAUUACGCAGA | -0.851 ± 0.16 | -0.643 ± 0.15 |
| GGCGAGCAAUAUUACGGAUU | -1.21 ± 0.17 | -1.06 ± 0.24 |
| UACAAGCAAUAUUACGCUCC | -2.38 ± 0.17 | -0.668 ± 0.17 |
| UAUCAGCAAUAUUACGUAUG | -0.321 ± 0.042 | 0.475 ± 0.058 |
| AGUGAGCAAUAUUACGAUAU | -3.14 ± 0.25 | -2.22 ± 0.28 |
| CCCAAGCAAUAUUACGGUGC | -3.6 ± 0.27 | -2.26 ± 0.22 |
| GAGAAGCAAUAUUACGACUG | -0.535 ± 0.062 | -0.0404 ± 0.073 |
| ACUAAGCAAUAUUACGAAUC | -3.41 ± 0.21 | -1.05 ± 0.17 |
| CCCCAGCAAUAUUACGAUAC | -3.82 ± 0.27 | -2.85 ± 0.28 |
| CUGAAGCAAUAUUACGUGAU | -2.7 ± 0.12 | -1.07 ± 0.15 |
| UUUCAGCAAUAUUACGGCGU | -2.37 ± 0.14 | -0.454 ± 0.14 |

| Sequence | self-splicing fitness (ln) (30 °C) | self-splicing fitness (ln) (37 °C) |
| --- | --- | --- |
| GAAGAGCAAUAUUACGGUCG | -3.24 ± 0.13 | -1.61 ± 0.15 |
| GCAAAGCAAUAUUACGCAGG | -2.33 ± 0.13 | -2.02 ± 0.19 |
| UACUAGCAAUAUUACGGCUU | -1.2 ± 0.096 | 0.146 ± 0.12 |
| ACUUAGCAAUAUUACGAGUG | -1.17 ± 0.12 | -1.58 ± 0.13 |
| UAAGAGCAAUAUUACGAAAC | – | -2.99 ± 0.37 |
| AUACAGCAAUAUUACGCGCA | -0.623 ± 0.078 | -0.0747 ± 0.11 |
| CUUUAGCAAUAUUACGUAUA | -3.57 ± 0.27 | -2.38 ± 0.49 |
| CCAUAGCAAUAUUACGCGAU | -2.56 ± 0.27 | -2.91 ± 0.43 |
| UCAAAGCAAUAUUACGGGCG | -0.842 ± 0.065 | -0.266 ± 0.083 |
| GUCAAGCAAUAUUACGGUCG | -3.23 ± 0.14 | -1.26 ± 0.13 |
| AACGAGCAAUAUUACGUCGC | -2.69 ± 0.36 | 1.3 ± 0.3 |
| AAAGAGCAAUAUUACGGCAC | -2.72 ± 0.19 | -2.01 ± 0.21 |
| ACAUAGCAAUAUUACGACCC | -0.944 ± 0.36 | -0.798 ± 0.32 |
| AUCCAGCAAUAUUACGGGAG | -1.63 ± 0.066 | -1.32 ± 0.074 |
| GGUCAGCAAUAUUACGCGAU | -2.41 ± 0.18 | – |
| GUGUAGCAAUAUUACGGAAU | -1.42 ± 0.13 | -1.64 ± 0.25 |
| GUACAGCAAUAUUACGUAGC | -0.896 ± 0.19 | -2.29 ± 0.25 |
| AAUUAGCAAUAUUACGGGAU | -2.28 ± 0.22 | -1.37 ± 0.2 |
| CCAGAGCAAUAUUACGAGCA | -5.29 ± 0.41 | -2.32 ± 0.19 |
| AAACAGCAAUAUUACGCUUU | -3.11 ± 0.095 | -1.33 ± 0.083 |
| UUGGAGCAAUAUUACGCCUA | -1.39 ± 0.2 | -0.365 ± 0.19 |
| GGUCAGCAAUAUUACGGUAG | -2.15 ± 0.18 | -0.967 ± 0.19 |
| AUAUAGCAAUAUUACGUCCC | -1.01 ± 0.17 | 0.139 ± 0.32 |
| CAGUAGCAAUAUUACGCGUC | -4.24 ± 0.31 | -2.83 ± 0.24 |
| CCUUAGCAAUAUUACGCGCU | -3.13 ± 0.32 | -3.41 ± 0.42 |
| CCGUAGCAAUAUUACGCCCG | -0.871 ± 0.15 | -0.0634 ± 0.21 |

| Sequence | self-splicing fitness (ln) (30 °C) | self-splicing fitness (ln) (37 °C) |
| --- | --- | --- |
| UACCAGCAAUAUUACGCAUG | -1.22 ± 0.062 | -1.09 ± 0.078 |
| GGCAAGCAAUAUUACGUCAG | -4.5 ± 0.34 | -2.4 ± 0.26 |
| CUUGAGCAAUAUUACGUGGC | – | -2.41 ± 0.31 |
| GGGCAGCAAUAUUACGGUUG | -1.94 ± 0.12 | -1.11 ± 0.13 |
| AGGAAGCAAUAUUACGACAG | -2.74 ± 0.19 | -1.64 ± 0.18 |
| GCUGAGCAAUAUUACGGGCG | -1.83 ± 0.14 | 0.15 ± 0.15 |
| ACGAAGCAAUAUUACGGCAC | -2.03 ± 0.17 | -0.996 ± 0.24 |
| AUGGAGCAAUAUUACGAUAA | -2.21 ± 0.26 | – |
| AACGAGCAAUAUUACGCUAU | -3.9 ± 0.24 | -2.18 ± 0.23 |
| CAAUAGCAAUAUUACGCUAA | -3.58 ± 0.43 | -2.05 ± 0.2 |
| GCCGAGCAAUAUUACGCACG | -3.74 ± 0.35 | -1.49 ± 0.36 |
| GACCAGCAAUAUUACGACGC | 0.184 ± 0.074 | -0.35 ± 0.085 |
| AGCAAGCAAUAUUACGGUAG | -3.4 ± 0.14 | -2.75 ± 0.15 |
| GCGGAGCAAUAUUACGGUAU | -3.38 ± 0.24 | -2.95 ± 0.26 |
| CAAAAGCAAUAUUACGCUUC | -3.84 ± 0.33 | -1.99 ± 0.24 |
| CACAAGCAAUAUUACGCCGU | -2.15 ± 0.23 | -2.36 ± 0.26 |
| GAAGAGCAAUAUUACGGCGA | -1.57 ± 0.2 | -0.931 ± 0.25 |
| CCAGAGCAAUAUUACGCGAU | – | -2.21 ± 0.33 |
| UUGAAGCAAUAUUACGCCCA | 0.429 ± 0.12 | 0.296 ± 0.16 |
| UCCGAGCAAUAUUACGUUGG | -3.33 ± 0.21 | -1.78 ± 0.24 |
| CCAAAGCAAUAUUACGUGAA | -4.04 ± 0.17 | -3.18 ± 0.27 |
| GAACAGCAAUAUUACGCUGG | -1.98 ± 0.28 | -1.3 ± 0.2 |
| AUCCAGCAAUAUUACGGGGC | -2.89 ± 0.14 | -2.82 ± 0.26 |
| UGACAGCAAUAUUACGUGGC | -4.11 ± 0.28 | -3.11 ± 0.37 |
| AGAAAGCAAUAUUACGUGUU | -3.31 ± 0.15 | -1.99 ± 0.12 |
